In PMC8764033, “Single-molecule analysis of specificity and multivalency in binding of short linear substrate motifs to the APC/C” (Nature Communications, 2022):
Where “and” joins values, the source holds several entries; their conditions need not be identical. Equal entries are not always repeated.

Molecular target: T1, APC/C^Cdc20 (Saccharomyces cerevisiae, UniProt P26309+P53068)
T1 construct: APC/C was purified from yeast cells; made in house; host or cells: APC/C from S. cerevisiae W303 strain NHY13 (Cdc16-TAP, Apc1-GFP, cdh1 deleted); Cdc20 from Sf9 (baculovirus)
Experiment: SMOR assay, yeast APC/C^Cdc20
Assay type: binding
Settings: for mean dwell time: representative of two independent experiments, ± SE, ligand ≤1 nM, buffer C + BSA
Protocol: Yeast strains were derivatives of W303 and are listed in Supplementary Table 2. For APC/C purification, we used a strain carrying Cdc16-TAP and lacking Cdh1 (DOM1126); in most experiments, the strain also carried Apc1-GFP (NHY13). Yeast were grown in YPD media to OD600 = 0.8, collected and flash-frozen. Cells were lysed by bead beating in lysis buffer A (50 mM HEPES pH 7.5, 150 mM KCl, 10% glycerol, 0.2% Triton X-100, 63 µM B-glycerophosphate, 48 µM sodium fluoride, 1 µg ml^−1 pepstatin A, 1 µg ml^−1 leupeptin, 1 µg ml^−1 aprotinin, 1 mM PMSF, 1 mM DTT, 0.5 mM EDTA) and APC/C was purified using magnetic IgG beads. The beads were washed using wash buffer A (20 mM HEPES pH 7.5, 150 mM KCl, 10% Glycerol, 0.05% Triton X-100). After incubation with purified Cdh1 or Cdc20, the APC/C was cleaved off the beads with TEV protease in wash buffer A with 0.05% Tween-20 (for single-molecule studies) or 0.05% Triton X-100 (for ensemble assays such as ubiquitylation) and used immediately.
For all SMOR experiments, 24 × 50 mm high precision glass coverslips (Bioscience Tools) and drilled microscope slides were passivated with a combination of PEG and PEG-biotin (coverslips) or PEG only (slides) following a previously published protocol for SiMPull[31]. Reaction chambers (~20 µl) were created using double-sided tape and epoxy. Protein was immobilized on the surface with 0.2 mg ml^−1 NeutrAvidin in buffer C (20 mM HEPES pH 7.5, 150 mM KCl, 10% glycerol, 0.05% Tween-20, 1 mM DTT). Excess NeutrAvidin was washed away and incubated with either biotin-conjugated mouse monoclonal anti-Strep-Tag II antibody (LSBio, Cat. No. LS-C203632-100) or biotin-conjugated rabbit polyclonal anti-GFP antibody (Rockland, Cat. No. 600-406-215) diluted in buffer C + BSA (0.1 mg ml^−1; Molecular Biology Grade Bovine Serum Albumin). Activator WD40 and activated APC/C (typically 50 µl containing about 65 ng APC/C, of which only a small fraction is immobilized on the glass) were immobilized using anti-Strep-Tag II, while APC/C alone was immobilized with anti-GFP. SMOR results were similar when performed in the buffer (wash buffer B) used in polarization anisotropy.
To capture dynamic protein–protein interactions, dye-labeled substrate diluted in buffer C + BSA was added to the chamber containing immobilized proteins. Interactions were imaged by TIRF microscopy as described below. For optimal signal-to-noise ratio, peptide concentration was no greater than 1 nM. Protein substrates included Hsl1 aa 667–872 and a C-terminal HaloTag followed by a TAP tag, and were produced by translation in rabbit reticulocyte lysates using TnT Quick Coupled Transcription/Translation System (Promega) (see Supplementary Table 5 for plasmids). Protein was purified with magnetic IgG beads and labeled on the bead with JF549 or JF646 dye so that unbound dye could be washed away. Purified dye-labeled protein was then cleaved from the beads using TEV protease. Before adding substrate to the reaction chamber, oxygen scavenging reagents were added (10 nM protocatechuate-3,4-dioxygenase, 2.5 mM protocatechuic acid, and 1 mM Trolox)[41]. A detailed description of the SMOR analysis pipeline is found in Supplementary Note 1.
Microscopy was performed with a Nikon Eclipse TE2000-E with Perfect Focus with a 100 × 1.49na oil, Apo TIRF DIC N2, 0.13-0.2, WD0.12 objective. Movies were recorded using the Andor iXon DU-897E-CSO. For visualizing GFP-tagged protein, a 491 nm laser was used with an ET525/50 (Chroma) filter for emission. […]

B1: Hsl1^Halo KEN & D: Hsl1 fragment (amino acids 667–872) with C-terminal HaloTag, JF549-labeled (protein)
chain: QNSASKRSLYSLQSISKRSLNLNDLLVFDDPLPSKKPASENVNKSEPHSLESDSDFEILCDQILFGNALDRILEEEEDNEKERDTQRQRQNDTKSSADTFTISGVSTNKENEGPEYPTKIEKNQFNMSYKPSENMSGLSSFPIFEKENTLSSSYLEEQKPKRAALSDITNSFNKMNKQEGMRIEKKIQREQLQKKNDRPSPLKPIQ
modifications: JF549 or JF646 dye covalently bound to the HaloTag; left off: HaloTag, C-terminal, kept | TAP, C-terminal, cleaved
notes: Hsl1 fragment (amino acids 667–872) with C-terminal HaloTag, JF549-labeled
fold lower affinity/dwell time with APC/C^Cdc20 than with APC/C^Cdh1 (preference for APC/C^Cdh1): 600 fold
Dwell Time (Supplementary Table 1, replicate 1 (movie listed first)): 0.518 ± 0.032 s
Dwell Time (Supplementary Table 1, replicate 2 (movie listed second)): 0.396 ± 0.027 s
mean dwell time: 0.518 ± 0.03 s and 0.518 s
mean dwell time (listed as Hsl1 fragment): 0.518 ± 0.03 s
